Data reported in patent US20190038796.

Biological target: EGF-MMP (recombinant epidermal growth factor with N-terminal PLP reactive site AKT, polyhistidine tag and MMP cleavage site VPLSLYSG)
Sequence (chain, as listed by the source): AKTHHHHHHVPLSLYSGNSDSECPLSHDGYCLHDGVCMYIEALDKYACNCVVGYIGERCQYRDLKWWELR

B1: Recombinant, human pro-MMP-9 expressed in CHO cells, activated with amino-phenyl mercuric acetate (APMA) (protein)
chain: APRQRQSTLVLFPGDLRTNLTDRQLAEEYLYRYGYTRVAEMRGESKSLGPALLLLQKQLSLPETGELDSATLKAMRTPRCGVPDLGRFQTFEGDLKWHHHNITYWIQNYSEDLPRAVIDDAFARAFALWSAVTPLTFTRVYSRDADIVIQFGVAEHGDGYPFDGKDGLLAHAFPPGPGIQGDAHFDDDELWSLGKGVVVPTRFGNADGAACHFPFIFEGRSYSACTTDGRSDGLPWCSTTANYDTDDRFGFCPSERLYTQDGNADGKPCQFPFIFQGQSYSACTTDGRSDGYRWCATTANYDRDKLFGFCPTRADSTVMGGNSAGELCVFPFTFLGKEYSTCTSEGRGDGRLWCATTSNFDSDKKWGFCPDQGYSLFLVAAHEFGHALGLDHSSVPEALMYPMYRFTEGPPLHKDDVNGIRHLYGPRPEPEPRPPTTTTPQPTAPPTVCPTGPPTVHPSERPTAGPTGPPSAGPTGPPTAGPSTATTVPLSPVDDACNVNIFDAIAEIGNQLYLFKDGKYWRFSEGRGSRPQGPFLIADKWPALPRKLDSVFEERLSKKLFFFSGRQVWVYTGASVLGPRRLDKLGLGADVAQVTGALRSGRGKMLLFSGRRLWRFDVKAQMVDPRSASEVDRMFPGVPLDTHDVFQYREKAYFCQDRFYWRVSSRSELNQVDQVGYVTYDILQCPED
conversion to the cleaved product by integration of MALDI-TOF data: over 99% conversion to the cleaved product
molecular weight by MALDI-TOF after incubation with MMP-9 (cleavage): After 2 hours, the molecular weight decreased from 8.16 kDa to 6.64 kDa, in precise agreement with the theoretical molecular weight of cleaved EGFMMP (6.64 kDa)
